# Test results as given in the supplement of paper PMC10126150.
# ± gives the standard deviation of the averaged measurements.
# System: ATP
# Test: switch fluorescence ratio, 500 uM ATP over buffer (Cy3 cluster intensity, sum of 5 cycles each) (fold (ratio)); higher = stronger signal-on switching upon ATP binding; sequences stand for … in TCGTCGGCAGCGTCAGATGTGTATAAGAGACAGTTTTTTTTTTTTTTTTTTTTTTTTT…TC
# Details: aptamer strand: ATP DNA aptamer (quencher-CACCTGGGGGAGTATTGCGGAGGAAGG + anchor), 100 nM annealed; ATP concentration: 500 uM
# Outline: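 Per cluster, summed Cy3 intensity from the target cycles was divided by that from the buffer cycles to give the fluorescence ratio, then averaged per switch-domain sequence. Clusters outside 100-1000 RFU were excluded. The Cy3-labelled switching-strand clusters, on a modified Illumina MiSeq flow-cell, were annealed to 100 nM quencher-labelled ATP aptamer and imaged in selection buffer, then after 15 min with 500 uM ATP at 22 °C, for five cycles with NaOH stripping and re-annealing between them.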
# 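Also: ATP exposure 15 min at 22 °C before imaging.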
row,Sequence,switch fluorescence ratio
1,AGTATGTCGT,1.03 ± 0.024
2,TTTTAATCGA,1.02 ± 0.043
3,ATTTAAATGT,1.01 ± 0.023
4,TTTGTTTCAT,1.04 ± 0.1
5,TATTTAGGAC,0.99 ± 0.028
6,AGGTTTGACA,1.027 ± 0.0067
7,GGGGAAGAAT,0.9784 ± 0.0021
8,TGCATGAAGC,1.034 ± 0.0057
9,ATGGAAGTGC,0.9827 ± 0.0068
10,TTTCCAGTAA,1.036 ± 0.0068
11,GGAGGATGGG,1 ± 0.014
12,CTGGTCCGGA,0.948 ± 0.0035
13,GGTTTGGTTG,1.003 ± 0.008
14,GTAATGATCT,1.06 ± 0.036
15,GAAAAAGGGG,1.01 ± 0.019
16,TGGGGGAGGG,1 ± 0.054
17,CTAGGTGGAC,1.01 ± 0.012
18,TACCTGCCGG,1.08 ± 0.026
19,ACGTGCAGTT,1.02 ± 0.012
20,TTTGCAGTTT,0.997 ± 0.024
21,CCGAGTGCAG,2.24 ± 0.33
22,CAGTTGCGAG,0.983 ± 0.042
23,TTGGGAGTGT,0.994 ± 0.031
24,GTTCGAAAAA,0.961 ± 0.09
25,CCTTTATGGT,0.983 ± 0.011

row,Sequence,switch fluorescence ratio
1,CGGGTCTTGG,1.03 ± 0.023
2,TATCCGAACG,1.4467 ± 0.00019
3,TGACAGTGGG,0.959 ± 0.04
4,CGGTCCTATG,0.993 ± 0.029
5,GGGTAAGTTT,1.007 ± 0.0044
6,CGGCCCGTAG,1.02 ± 0.036
7,TTGGGTGCCG,1.03 ± 0.048
8,TGAGTGGCTT,0.967 ± 0.034
9,ATTTTGGCAA,1.42 ± 0.3
10,TGGTAAAGCT,0.994 ± 0.017
11,ATTTGATATG,0.965 ± 0.031
12,CGCATGTTTC,1.2 ± 0.15
13,TTTATGGGGG,0.999 ± 0.034
14,GGAGCAAGGG,3.37 ± 1.5
15,TGCCGAGGTG,1.38 ± 0.12
16,CGTATCTCTA,0.989 ± 0.01
17,TCTTTCATAT,0.9392 ± 0.0062
18,GTGCATGGGA,0.997 ± 0.055
19,TTTCCTGGAT,1.04 ± 0.052
20,ATCTTTTAGG,1.07 ± 0.11
21,AGTTATTTGG,1 ± 0.0047
22,TGGTTGTCGT,1.01 ± 0.033
23,CACTCGGAAT,1.19 ± 0.03
24,GGTAGTAATT,0.998 ± 0.0029
25,CCGTTTCGGT,0.976 ± 0.014

row,Sequence,switch fluorescence ratio
1,TAGTTGGGAT,0.991 ± 0.029
2,TGAGTTTCTG,0.968 ± 0.014
3,ATCTAGGTCA,1.02 ± 0.037
4,TAATCACGTC,1.04 ± 0.048
5,GGGGTGGGAA,0.9795 ± 0.0094
6,AATAATTTCG,1.007 ± 0.0082
7,ACTAGATACG,1.04 ± 0.018
8,GGATTAAATG,0.982 ± 0.037
9,AAACTGTAAA,1.08 ± 0.045
10,TTCTTGAGGT,0.9669 ± 0.0016
11,TCAGGGGGCT,1.03 ± 0.088
12,GCTCGCCTGA,0.995 ± 0.025
13,GCGGTTCAGC,0.985 ± 0.014
14,TTTGATAATA,1.02 ± 0.056
15,AAAAATTTAG,0.994 ± 0.034
16,GGATATGAGG,1 ± 0.018
17,GGTGTCGCTA,0.9795 ± 0.0094
18,ACCTAAAATA,1.07 ± 0.085
19,GGATAATAAG,1.01 ± 0.029
20,CGGGGGGA,1.39 ± 0.54
21,ACTTGGCATC,1.13 ± 0.043
22,CAGTGCATTG,1.01 ± 0.023
23,GGGGTAATGC,1.34 ± 0.18
24,GGTGAAAGGA,0.979 ± 0.058
25,TAAATAGAAT,1.11 ± 0.1

row,Sequence,switch fluorescence ratio
1,TCCGACTCG,1.09 ± 0.041
2,GACGTGGGGC,1.131 ± 0.0064
3,TAACGGCATC,1.08 ± 0.036
4,ACGTGTGGGG,1.05 ± 0.034
5,GGAAATACGA,1.27 ± 0.036
6,AGGTCTATGC,0.975 ± 0.016
7,GGGAAATCGT,1.02 ± 0.012
8,TTTGCCAGAC,1.23 ± 0.24
9,GGTCGCGTAG,1.01 ± 0.03
10,TTTTTTGCTG,0.985 ± 0.026
11,GGGGAAAGGC,1.02 ± 0.018
12,AGCGGATGTG,0.978 ± 0.027
13,TTTGAGATTT,0.9974 ± 0.009
14,TTTACGCGCA,1.01 ± 0.03
15,ATTTGTTTTG,0.997 ± 0.053
16,AAGGGCGGGC,1.07 ± 0.0085
17,AACGTGAGTG,1.02 ± 0.011
18,GATTGAATCC,1.01 ± 0.059
19,TTAGGGTTCC,0.992 ± 0.035
20,CGCCTGGGCA,1.02 ± 0.043
21,ATAATGCTCT,1.02 ± 0.024
22,AAGGGGTGTT,1.02 ± 0.02
23,TTTCCAGCGT,1.03 ± 0.036
24,GATAGTACGG,1.01 ± 0.015
25,GGGAAAATA,0.969 ± 0.018

row,Sequence,switch fluorescence ratio
1,TTCCCGGGGT,1.2 ± 0.32
2,GCAAGAACGC,1.096 ± 0.0023
3,ATACGTAGTC,1.07 ± 0.014
4,TTCAAACATC,1 ± 0.015
5,GACATGTAAA,1.048 ± 0.0023
6,GGGTATCGGG,0.98857 ± 0.00067
7,GGTAGGGTGG,1.02 ± 0.048
8,TGCTCGTATA,0.9852 ± 0.0062
9,TGGTTAAAAG,0.977 ± 0.051
10,TTGAGTTCTC,0.978 ± 0.016
11,TTGTGTTGGG,1.01 ± 0.034
12,TAGGTGGGCA,0.987 ± 0.054
13,TTAGCGCTTT,0.9853 ± 0.0082
14,TTTTCTTATG,0.96 ± 0.013
15,AAGGATTAAC,0.985 ± 0.032
16,GTTCGGGATT,0.981 ± 0.023
17,ATCAGGAAAA,1.02 ± 0.071
18,TAGGGTAGTT,1.02 ± 0.071
19,CCAGGGCGGG,0.99 ± 0.043
20,AGCCCCTTAG,1.002 ± 0.0065
21,TTTTTACTCG,0.9965 ± 0.005
22,ATGGATAGCG,0.968 ± 0.074
23,CCGGTATTGT,1.03 ± 0.037
24,GCAGGGGTTC,1.16 ± 0.15
25,AGGAAATTGT,1.01 ± 0.059

row,Sequence,switch fluorescence ratio
1,TTTTTTTGAG,1.02 ± 0.026
2,GATGGGCGGG,1.03 ± 0.055
3,ACGGGACAGC,1.2 ± 0.064
4,GGTAACAGCT,1.04 ± 0.051
5,TGAGGGAGTG,0.996 ± 0.021
6,GGTTTATCAA,1.0008 ± 0.00076
7,CTTGAAAGGG,0.997 ± 0.02
8,AAGCGTTTTT,1.018 ± 0.0045
9,AGCCTGCCCT,1.067 ± 0.0053
10,TATGTGAGCA,0.99 ± 0.014
11,CATGAATGGT,0.962 ± 0.022
12,ACCCGATTGC,1.29 ± 0.044
13,AACTATGCAG,1.02 ± 0.017
14,GGATATAGTC,1 ± 0.036
15,ATTCTTTCTT,1.002 ± 0.0018
16,AGTGCATTGG,1 ± 0.024
17,AAGGGGGTGG,1.02 ± 0.059
18,TTGACGGTGG,1.05 ± 0.086
19,AAAATCTAGT,1.014 ± 0.0081
20,GGTTTTCGAA,1.01 ± 0.042
21,GGGGTTCAGA,0.9846 ± 0.0041
22,GGGTCAAAGT,1.01 ± 0.013
23,TTTAATTTTA,1 ± 0.02
24,ATATATATGG,1.03 ± 0.035
25,TGGAGGTGTT,1.03 ± 0.035

row,Sequence,switch fluorescence ratio
1,CGAATCGGCT,1.05 ± 0.054
2,CTTTTTTGGT,1.03 ± 0.015
3,GGTGGGGGG,0.977 ± 0.012
4,GCCTTTTGCA,1.01 ± 0.03
5,CCAGCTTTTA,1.09 ± 0.052
6,TTTAGTGTGC,1.01 ± 0.03
7,TAGTAGGTTG,0.979 ± 0.04
8,TCGAGGGGGT,0.986 ± 0.054
9,GAACTAGGTG,1.444 ± 0.0058
10,AAGGAGAAGA,0.993 ± 0.01
11,AAACGGTTTC,0.993 ± 0.036
12,TAGGAGTGAA,0.9792 ± 0.0021
13,TTTCGGATGG,1.03 ± 0.057
14,GGGTAAAGTT,1.01 ± 0.027
15,AAGCAGGGGA,1.05 ± 0.032
16,TCGGTGTCGC,0.9621 ± 0.0031
17,TGTGAGTTAG,1 ± 0.025
18,CGTAGTGTAG,1.02 ± 0.052
19,GAGTTGGGGA,1 ± 0.036
20,GGGTAAAGGG,1 ± 0.045
21,GTAGTTGGAA,0.9968 ± 0.0085
22,TCGAAGGGCG,1.021 ± 0.0057
23,GCTGTTGGCG,0.9728 ± 0.0043
24,TAATGCGTTT,0.98 ± 0.0039
25,CTGTGTGCAC,1 ± 0.066

row,Sequence,switch fluorescence ratio
1,TTACCAGATT,0.982 ± 0.033
2,TCGCTTGGGG,1 ± 0.013
3,ATGGCAAGGT,1.02 ± 0.065
4,GTTATTTACG,1.02 ± 0.033
5,CGGTTTGTGT,0.998 ± 0.029
6,TCAGGGGGGT,1.11 ± 0.3
7,CATTTATATT,0.986 ± 0.032
8,TTGGTGGCGG,0.978 ± 0.028
9,GGAAACGCGA,1.54 ± 0.093
10,GTGCTCAGGG,1.02 ± 0.077
11,GCTTAAAAAT,0.986 ± 0.095
12,TAAATCTCTG,1.004 ± 0.0055
13,TGAATTATTT,1.02 ± 0.035
14,GATCCCCCCC,1.06 ± 0.03
15,GGTTTAGTTG,0.9744 ± 0.0062
16,TGATAGAGGA,0.988 ± 0.059
17,CAGATAAGTG,1.01 ± 0.068
18,TGTGTTTTCG,1 ± 0.014
19,ACTTGTAGCT,1.02 ± 0.011
20,ATATTGATGT,1.01 ± 0.037
21,GGACCATATC,1.07 ± 0.017
22,AAGCGGGGAG,1.04 ± 0.04
23,GATAAATGAT,1 ± 0.02
24,AGGTAGGCGT,0.97539 ± 0.00061
25,CCTGGCATTT,2.2 ± 1.4
